Test results as given in patent US20260152753.

Tested on: κ-casein (in skim milk)

PEP4 aspartyl protease of the Pichia pastoris host cell
SDS electrophoresis after 24 hours at 5 °C, 0.5% b-lactoglobulin from a pep4-containing host, heated and unheated: the k-casein peak in both the heated and unheated samples had markedly reduced in size and a peak in the position expected for para-k-casein was present
SDS-PAGE of heated skim milk with B-lac from a pep4-containing host: κ-casein band and para-κ-casein band: the band intensity of the k-casein band decreased and a peptide band consistent with that of para-k-casein appeared
SDS-PAGE of unheated skim milk with B-lac from a pep4-containing host: κ-casein band and para-κ-casein band: the band intensity of the k-casein band decreased and a peptide band consistent with that of para-k-casein appeared
lab-on-a-chip para-κ-casein peak area 24 h after 80 °C/30 min treatment, sample B-lac 1A (start: 0): After 24 hours, the peak area was 115.2 and 35.82 for κ-casein and para-κ-casein, respectively
lab-on-a-chip para-κ-casein peak area 24 h after 120 °C/10 min treatment, sample B-lac 1A (start: 0): After 24 hours, the peak area was 179.4 and 16.12 for κ-casein and para-κ-casein, respectively
lab-on-a-chip peak area of para-κ-casein formed at 24 h at 5 °C, sample B-lac 1A (0 h: 0): 147 peak area
lab-on-a-chip peak area of para-κ-casein formed at 24 h at 5 °C, sample B-lac 1B (0 h: 0): 56.1 peak area
lab-on-a-chip κ-casein peak area 24 h after 80 °C/30 min treatment, sample B-lac 1A (start: 249.48): After 24 hours, the peak area was 115.2 and 35.82 for κ-casein and para-κ-casein, respectively
lab-on-a-chip κ-casein peak area 24 h after 120 °C/10 min treatment, sample B-lac 1A (start: 249.6): After 24 hours, the peak area was 179.4 and 16.12 for κ-casein and para-κ-casein, respectively
lab-on-a-chip κ-casein peak area at 24 h at 5 °C, sample B-lac 1A (0 h: 255): 91.5 (64% degraded)
lab-on-a-chip κ-casein peak area at 24 h at 5 °C, sample B-lac 1B (0 h: 253.98): 138.72 (46% degraded)
microfluidic chip SDS-PAGE of skim milk with about 1% B-Lac 1A held 0, 24 or 48 hours at room temperature: showed evidence of proteolysis on storage with a decrease in the band associated with k-casein, and a new peptide peak appearing
κ-casein degraded 24 h after 80 °C/30 min treatment, sample B-lac 1A: indicating that κ-casein had degraded by 54%
κ-casein degraded 24 h after 120 °C/10 min treatment, sample B-lac 1A: indicating that κ-casein had degraded by 72%
κ-casein degraded after 24 h at 5 °C, sample B-lac 1A: 91.5 (64% degraded)
κ-casein degraded after 24 h at 5 °C, sample B-lac 1B: 138.72 (46% degraded)
